Test results published in article PMC7367873, “Dissecting the sequence determinants for dephosphorylation by the catalytic subunits of phosphatases PP1 and PP2A” (Nature Communications, 2020).

B1: FLOT2 (protein, UniProt Q14254 2-428, looked up)
Flotillin-2: GNCHTVGPNEALVVSGGCCGSDYKQYVFGGWAWAWWCISDTQRISLEIMTLQPRCEDVETAEGVALTVTGVAQVKIMTEKELLAVACEQFLGKNVQDIKNVVLQTLEGHLRSILGTLTVEQIYQDRDQFAKLVREVAAPDVGRMGIEILSFTIKDVYDKVDYLSSLGKTQTAVVQRDADIGVAEAERDAGIREAECKKEMLDVKFMADTKIADSKRAFELQKSAFSEEVNIKTAEAQLAYELQGAREQQKIRQEEIEIEVVQRKKQIAVEAQEILRTDKELIATVRRPAEAEAHRIQQIAEGEKVKQVLLAQAEAEKIRKIGEAEAAVIEAMGKAEAERMKLKAEAYQKYGDAAKMALVLEALPQIAAKIAAPLTKVDEIVVLSGDNSKVTSEVNRLLAELPASVHALTGVDLSKIPLIKKATGVQV
B2: U2SURP (protein, UniProt O15042 2-1029, looked up)
U2 snRNP-associated SURP …: ADKTPGGSQKASSKTRSSDVHSSGSSDAHMDASGPSDSDMPSRTRPKSPRKHNYRNESARESLCDSPHQNLSRPLLENKLKAFSIGKMSTAKRTLSKKEQEELKKKEDEKAAAEIYEEFLAAFEGSDGNKVKTFVRGGVVNAAKEEHETDEKRGKIYKPSSRFADQKNPPNQSSNERPPSLLVIETKKPPLKKGEKEKKKSNLELFKEELKQIQEERDERHKTKGRLSRFEPPQSDSDGQRRSMDAPSRRNRSSGVLDDYAPGSHDVGDPSTTNLYLGNINPQMNEEMLCQEFGRFGPLASVKIMWPRTDEERARERNCGFVAFMNRRDAERALKNLNGKMIMSFEMKLGWGKAVPIPPHPIYIPPSMMEHTLPPPPSGLPFNAQPRERLKNPNAPMLPPPKNKEDFEKTLSQAIVKVVIPTERNLLALIHRMIEFVVREGPMFEAMIMNREINNPMFRFLFENQTPAHVYYRWKLYSILQGDSPTKWRTEDFRMFKNGSFWRPPPLNPYLHGMSEEQETEAFVEEPSKKGALKEEQRDKLEEILRGLTPRKNDIGDAMVFCLNNAEAAEEIVDCITESLSILKTPLPKKIARLYLVSDVLYNSSAKVANASYYRKFFETKLCQIFSDLNATYRTIQGHLQSENFKQRVMTCFRAWEDWAIYPEPFLIKLQNIFLGLVNIIEEKETEDVPDDLDGAPIEEELDGAPLEDVDGIPIDATPIDDLDGVPIKSLDDDLDGVPLDATEDSKKNEPIFKVAPSKWEAVDESELEAQAVTTSKWELFDQHEESEEEENQNQEEESEDEEDTQSSKSEEHHLYSNPIKEEMTESKFSKYSEMSEEKRAKLREIELKVMKFQDELESGKRPKKPGQSFQEQVEHYRDKLLQREKEKELERERERDKKDKEKLESRSKDKKEKDECTPTRKERKRRHSTSPSPSRSSSGRRVKSPSPKSERSERSERSHKESSRSRSSHKDSPRDVSKKAKRSPSGSRTPKRSRRSRSRSPKKSGKKSRSQSRSPHRSHKKSKKNKH
B3: NUFIP2 (protein, UniProt Q7Z417 1-695, looked up)
FMR1-interacting protein …: MEEKPGQPQPQHHHSHHHPHHHPQQQQQQPHHHHHYYFYNHSHNHHHHHHHQQPHQYLQHGAEGSPKAQPKPLKHEQKHTLQQHQETPKKKTGYGELNGNAGEREISLKNLSSDEATNPISRVLNGNQQVVDTSLKQTVKANTFGKAGIKTKNFIQKNSMDKKNGKSYENKSGENQSVDKSDTIPIPNGVVTNNSGYITNGYMGKGADNDGSGSESGYTTPKKRKARRNSAKGCENLNIVQDKIMQQETSVPTLKQGLETFKPDYSEQKGNRVDGSKPIWKYETGPGGTSRGKPAVGDMLRKSSDSKPGVSSKKFDDRPKGKHASAVASKEDSWTLFKPPPVFPVDNSSAKIVPKISYASKVKENLNKTIQNSSVSPTSSSSSSSSTGETQTQSSSRLSQVPMSALKSVTSANFSNGPVLAGTDGNVYPPGGQPLLTTAANTLTPISSGTDSVLQDMSLTSAAVEQIKTSLFIYPSNMQTMLLSTAQVDLPSQTDQQNLGDIFQNQWGLSFINEPSAGPETVTGKSSEHKVMEVTFQGEYPATLVSQGAEIIPSGTEHPVFPKAYELEKRTSPQVLGSILKSGTTSESGALSLEPSHIGDLQKADTSSQGALVFLSKDYEIESQNPLASPTNTLLGSAKEQRYQRGLERNDSWGSFDLRAAIVYHTKEMESIWNLQKQDPKRIITYNEAMDSPDQ
B4: ARHGEF2 (protein, UniProt Q92974 1-986, looked up)
Rho guanine nucleotide …: MSRIESLTRARIDRSRELASKTREKEKMKEAKDARYTNGHLFTTISVSGMTMCYACNKSITAKEALICPTCNVTIHNRCKDTLANCTKVKQKQQKAALLKNNTALQSVSLRSKTTIRERPSSAIYPSDSFRQSLLGSRRGRSSLSLAKSVSTTNIAGHFNDESPLGLRRILSQSTDSLNMRNRTLSVESLIDEAEVIYSELMSDFEMDEKDFAADSWSLAVDSSFLQQHKKEVMKQQDVIYELIQTELHHVRTLKIMTRLFRTGMLEELHLEPGVVQGLFPCVDELSDIHTRFLSQLLERRRQALCPGSTRNFVIHRLGDLLISQFSGPSAEQMCKTYSEFCSRHSKALKLYKELYARDKRFQQFIRKVTRPAVLKRHGVQECILLVTQRITKYPLLISRILQHSHGIEEERQDLTTALGLVKELLSNVDEGIYQLEKGARLQEIYNRMDPRAQTPVPGKGPFGREELLRRKLIHDGCLLWKTATGRFKDVLVLLMTDVLVFLQEKDQKYIFPTLDKPSVVSLQNLIVRDIANQEKGMFLISAAPPEMYEVHTASRDDRSTWIRVIQQSVRTCPSREDFPLIETEDEAYLRRIKMELQQKDRALVELLREKVGLFAEMTHFQAEEDGGSGMALPTLPRGLFRSESLESPRGERLLQDAIREVEGLKDLLVGPGVELLLTPREPALPLEPDSGGNTSPGVTANGEARTFNGSIELCRADSDSSQRDRNGNQLRSPQEEALQRLVNLYGLLHGLQAAVAQQDTLMEARFPEGPERREKLCRANSRDGEAGRAGAAPVAPEKQATELALLQRQHALLQEELRRCRRLGEERATEAGSLEARLRESEQARALLEREAEEARRQLAALGQTEPLPAEAPWARRPVDPRRRSLPAGDALYLSFNPPQPSRGTDRLDLPVTTRSVHRNFEDRERQELGSPEERLQDSSDPDTGSEEEGSSRLSPPHSPRDFTRMQDIPEETESRDGEAVASES
B5: SRP68 (protein, UniProt Q9UHB9 1-627, looked up)
Signal recognition particle …: MAAEKQVPGGGGGGGSGGGGGSGGGGSGGGRGAGGEENKENERPSAGSKANKEFGDSLSLEILQIIKESQQQHGLRHGDFQRYRGYCSRRQRRLRKTLNFKMGNRHKFTGKKVTEELLTDNRYLLLVLMDAERAWSYAMQLKQEANTEPRKRFHLLSRLRKAVKHAEELERLCESNRVDAKTKLEAQAYTAYLSGMLRFEHQEWKAAIEAFNKCKTIYEKLASAFTEEQAVLYNQRVEEISPNIRYCAYNIGDQSAINELMQMRLRSGGTEGLLAEKLEALITQTRAKQAATMSEVEWRGRTVPVKIDKVRIFLLGLADNEAAIVQAESEETKERLFESMLSECRDAIQVVREELKPDQKQRDYILEGEPGKVSNLQYLHSYLTYIKLSTAIKRNENMAKGLQRALLQQQPEDDSKRSPRPQDLIRLYDIILQNLVELLQLPGLEEDKAFQKEIGLKTLVFKAYRCFFIAQSYVLVKKWSEALVLYDRVLKYANEVNSDAGAFKNSLKDLPDVQELITQVRSEKCSLQAAAILDANDAHQTETSSSQVKDNKPLVERFETFCLDPSLVTKQANLVHFPPGFQPIPCKPLFFDLALNHVAFPPLEDKLEQKTKSGLTGYIKGIFGFRS
B6: TRIM56 (protein, UniProt Q9BRZ2 1-755, looked up)
E3 ubiquitin-protein ligase …: MVSHGSSPSLLEALSSDFLACKICLEQLRAPKTLPCLHTYCQDCLAQLADGGRVRCPECRETVPVPPEGVASFKTNFFVNGLLDLVKARACGDLRAGKPACALCPLVGGTSTGGPATARCLDCADDLCQACADGHRCTRQTHTHRVVDLVGYRAGWYDEEARERQAAQCPQHPGEALRFLCQPCSQLLCRECRLDPHLDHPCLPLAEAVRARRPGLEGLLAGVDNNLVELEAARRVEKEALARLREQAARVGTQVEEAAEGVLRALLAQKQEVLGQLRAHVEAAEEAARERLAELEGREQVARAAAAFARRVLSLGREAEILSLEGAIAQRLRQLQGCPWAPGPAPCLLPQLELHPGLLDKNCHLLRLSFEEQQPQKDGGKDGAGTQGGEESQSRREDEPKTERQGGVQPQAGDGAQTPKEEKAQTTREEGAQTLEEDRAQTPHEDGGPQPHRGGRPNKKKKFKGRLKSISREPSPALGPNLDGSGLLPRPIFYCSFPTRMPGDKRSPRITGLCPFGPREILVADEQNRALKRFSLNGDYKGTVPVPEGCSPCSVAALQSAVAFSASARLYLINPNGEVQWRRALSLSQASHAVAALPSGDRVAVSVAGHVEVYNMEGSLATRFIPGGKASRGLRALVFLTTSPQGHFVGSDWQQNSVVICDGLGQVVGEYKGPGLHGCQPGSVSVDKKGYIFLTLREVNKVVILDPKGSLLGDFLTAYHGLEKPRVTTMVDGRYLVVSLSNGTIHIFRVRSPDS
B7: PGAM5 (protein, UniProt Q96HS1 1-289, looked up)
Serine/threonine-protein …: MAFRQALQLAACGLAGGSAAVLFSAVAVGKPRAGGDAEPRPAEPPAWAGGARPGPGVWDPNWDRREPLSLINVRKRNVESGEEELASKLDHYKAKATRHIFLIRHSQYHVDGSLEKDRTLTPLGREQAELTGLRLASLGLKFNKIVHSSMTRAIETTDIISRHLPGVCKVSTDLLREGAPIEPDPPVSHWKPEAVQYYEDGARIEAAFRNYIHRADARQEEDSYEIFICHANVIRYIVCRALQFPPEGWLRLSLNNGSITHLVIRPNGRVALRTLGDTGFMPPDKITRS
B8: RPN2 (protein, UniProt P04844 23-631, looked up)
Dolichyl-diphosphooligosacchar …: LTPTHYLTKHDVERLKASLDRPFTNLESAFYSIVGLSSLGAQVPDAKKACTYIRSNLDPSNVDSLFYAAQASQALSGCEISISNETKDLLLAAVSEDSSVTQIYHAVAALSGFGLPLASQEALSALTARLSKEETVLATVQALQTASHLSQQADLRSIVEEIEDLVARLDELGGVYLQFEEGLETTALFVAATYKLMDHVGTEPSIKEDQVIQLMNAIFSKKNFESLSEAFSVASAAAVLSHNRYHVPVVVVPEGSASDTHEQAILRLQVTNVLSQPLTQATVKLEHAKSVASRATVLQKTSFTPVGDVFELNFMNVKFSSGYYDFLVEVEGDNRYIANTVELRVKISTEVGITNVDLSTVDKDQSIAPKTTRVTYPAKAKGTFIADSHQNFALFFQLVDVNTGAELTPHQTFVRLHNQKTGQEVVFVAEPDNKNVYKFELDTSERKIEFDSASGTYTLYLIIGDATLKNPILWNVADVVIKFPEEEAPSTVLSQNLFTPKQEIQHLFREPEKRPPTVVSNTFTALILSPLLLLFALWIRIGANVSNFTFAPSTIIFHLGHAAMLGLMYVYWTQLNMFQTLKYLAILGSVTFLAGNRMLAQQAVKRTAH

Test system: GFP-14-3-3β and its binding proteins
Test: GFP-14-3-3β co-IP with LC-MS/MS label-free quantification, untreated versus PP1c-treated
Set-up: species or system human
Conditions: PP1 vs untreated; label-free quantification

| Molecule | Difference (log2), PP1 vs untreated |
| --- | --- |
| B1 | 0.7666 log2 |
| B2 | 0.8713 log2 |
| B3 | 0.7682 log2 |
| B4 | 0.772 log2 |
| B5 | 0.7891 log2 |
| B6 | 0.8378 log2 |

Same assay, conditions: log2 difference; pairwise comparison PP1 vs untreated, label-free quantification, 3 replicates each

| Molecule | Difference (log2), PP1 vs untreated |
| --- | --- |
| B7 | 2.342 |
| B8 | 2.419 |

Test system: GFP-14-3-3β
Test: GFP-14-3-3β co-IP with LC-MS/MS, untreated GFP-14-3-3β versus GFP control (14-3-3 interactome)
Format: binding, human
Conditions: log2 difference; pairwise comparison untreated vs GFP, label-free quantification, 3 replicates each

| Molecule | Difference (log2), untreated vs GFP |
| --- | --- |
| B7 | -0.7531 |
| B8 | -1.824 |

Same assay, conditions: untreated vs GFP; label-free quantification

| Molecule | Difference (log2), untreated vs GFP |
| --- | --- |
| B1 | -0.7491 log2 |
| B2 | 0.6 log2 |
| B3 | 0.8112 log2 |
| B4 | 1.2 log2 |
| B5 | 0.06806 log2 |
| B6 | -0.02313 log2 |
